Article PMC6089609 (Methods in cell biology, 2015)

Target: the molecule itself
Assay: negative stain and cryo-electron microscopy of assemblies on liposomes

B1: EndophilinA1 (natural protein, human, UniProt Q99962 1-352, looked up)
chain: MSVAGLKKQFHKATQKVSEKVGGAEGTKLDDDFKEMERKVDVTSRAVMEIMTKTIEYLQPNPASRAKLSMINTMSKIRGQEKGPGYPQAEALLAEAMLKFGRELGDDCNFGPALGEVGEAMRELSEVKDSLDIEVKQNFIDPLQNLHDKDLREIQHHLKKLEGRRLDFDYKKKRQGKIPDEELRQALEKFDESKEIAESSMFNLLEMDIEQVSQLSALVQAQLEYHKQAVQILQQVTVRLEERIRQASSQPRREYQPKPRMSLEFPTGDSTQPNGGLSHTGTPKPSGVQMDQPCCRALYDFEPENEGELGFKEGDIITLTNQIDENWYEGMLHGHSGFFPINYVEILVALPH
binding result: binds
